Reference: patent US7183387 (Genentech, dated 2007)

T1: human FcγRIIA-Arg131 α subunit extracellular domain-His6-GST fusion (human, UniProt P12318 34-217)
T1 construct: extracellular domain; also called FcγRIIA-R131; not shown: glutathione S transferase (GST)
T1 sequence: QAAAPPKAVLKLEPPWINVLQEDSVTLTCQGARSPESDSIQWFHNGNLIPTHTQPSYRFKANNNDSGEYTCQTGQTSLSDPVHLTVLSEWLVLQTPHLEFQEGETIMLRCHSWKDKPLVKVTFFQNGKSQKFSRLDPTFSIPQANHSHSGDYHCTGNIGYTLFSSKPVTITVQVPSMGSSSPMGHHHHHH

T2: human FcγRIIB α subunit extracellular domain-His6-GST fusion (human, UniProt P31994 43-217)
T2 construct: extracellular domain; also called CD32; not shown: glutathione S transferase (GST)
T2 sequence: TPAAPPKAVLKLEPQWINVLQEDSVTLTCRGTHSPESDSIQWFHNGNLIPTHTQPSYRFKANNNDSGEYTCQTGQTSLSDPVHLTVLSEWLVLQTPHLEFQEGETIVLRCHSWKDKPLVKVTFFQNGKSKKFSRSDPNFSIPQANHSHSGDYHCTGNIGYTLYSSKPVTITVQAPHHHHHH


Tests used:
[1] = molecular target: T3, human FcγRIA α subunit extracellular domain-His6-GST fusion (human, UniProt P12314 16-292); assay: FcγRI ELISA and THP-1 cells, averaged
T3 construct: extracellular domain; also called GST-FcγRIA; CD64; not shown: glutathione S transferase (GST)

[2] = molecular target: T1, human FcγRIIA-Arg131 α subunit …; assay: hexamer ELISA
[3] = molecular target: T2, human FcγRIIB α subunit extracellular …; assay: hexamer ELISA
[4] = molecular target: T4, human FcγRIIIA-Phe158 α subunit extracellular domain-His6-GST fusion (human, UniProt P08637 17-208); assay: hexamer ELISA
T4 construct: extracellular domain; also called FcγRIIIA-F158; CD16; not shown: glutathione S transferase (GST)

[5] = molecular target: T5, human neonatal Fc receptor (FcRn), biotinylated (human, UniProt P55899 24-297; P61769 21-119, biotinylated (biotin-X-NHS)); assay: FcRn ELISA, pH 6.0;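 note: Streptavidin-captured FcRn plates, IgG variants titrated 2 h at pH 6.0, peroxidase anti-human IgG read at 450 nm, variant over standard concentration at the standard curve mid-point absorbance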
T5 construct: captured on streptavidin plates
Experimental: FcRn Binding ELISA: For measuring FcRn binding activity of IgG variants, ELISA plates were coated with 2 µg/ml streptavidin (Zymed, South San Francisco) in 50 mM carbonate buffer, pH 9.6, at 4° C. overnight and blocked with PBS-0.5% BSA, pH 7.2 at room temperature for one hour. Biotinylated FcRn (prepared using biotin-X-NHS from Research Organics, Cleveland, Ohio and used at 1–2 µg/ml) in PBS-0.5% BSA, 0.05% polysorbate 20, pH 7.2, was added to the plate and incubated for one hour. Two fold serial dilutions of IgG standard (1.6–100 ng/ml) or variants in PBS-0.5% BSA, 0.05% polysorbate 20, pH 6.0, were added to the plate and incubated for two hours. Bound IgG was detected using peroxidase labeled goat F(ab')_2 anti-human IgG F(ab')_2 in the above pH 6.0 buffer (Jackson ImmunoResearch, West Grove, Pa.) followed by 3,3',5,5'-tetramethyl benzidine (Kirgaard & Perry Laboratories) as the substrate. Plates were washed between steps with PBS-0.05% TWEEN 20® at either pH 7.2 or 6.0. Absorbance was read at 450 nm on a Vmax plate reader (Molecular Devices, Menlo Park, Calif.). Titration curves were fit with a four-parameter nonlinear regression curve-fitting program (KaleidaGraph, Synergy software, Reading, Pa.). Concentrations of IgG variants corresponding to the mid-point absorbance of the titration curve of the standard were calculated and then divided by the concentration of the standard corresponding to the mid-point absorbance of the standard titration curve.

T4 sequence (P08637 other isoform, or with tags, fused parts or gaps): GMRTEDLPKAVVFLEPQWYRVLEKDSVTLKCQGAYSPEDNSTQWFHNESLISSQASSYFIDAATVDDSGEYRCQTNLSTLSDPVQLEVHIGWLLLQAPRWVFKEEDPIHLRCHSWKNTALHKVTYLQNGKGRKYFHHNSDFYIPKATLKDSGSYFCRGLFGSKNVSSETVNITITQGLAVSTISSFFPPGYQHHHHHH
T3 sequence (P12314 other isoform, or with tags, fused parts or gaps): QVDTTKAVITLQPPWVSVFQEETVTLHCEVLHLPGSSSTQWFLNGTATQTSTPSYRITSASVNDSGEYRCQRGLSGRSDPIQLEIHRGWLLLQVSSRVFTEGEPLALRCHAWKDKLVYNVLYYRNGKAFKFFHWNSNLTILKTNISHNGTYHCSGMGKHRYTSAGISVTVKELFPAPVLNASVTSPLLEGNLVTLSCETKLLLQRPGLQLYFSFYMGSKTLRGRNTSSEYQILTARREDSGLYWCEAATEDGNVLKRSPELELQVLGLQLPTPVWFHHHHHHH

| Binder | ratio to native IgG1 [1] [ratio] | ratio to native IgG1 [2] [ratio] | ratio to native IgG1 [3] [ratio] | ratio to native IgG1 [4] [ratio] | ratio to native IgG1 [5] [ratio] |
| --- | --- | --- | --- | --- | --- |
| anti-IgE E27 IgG1 Glu382Ala (antibody) heavy: not shown light: DIQLTQSPSSLSASVGDRVTITCRASKPVDGEGDSYLNWYQQKPGKAPKLLIYAASYLESGVPSRFSGSGSGTDFTLTISSLQPEDFATYYCQQSHEDPYTFGQGTKVEIKRTVAAPSVFIFPPSDEQLKSGTASVVCLLNNFYPREAKVQWKVDNALQSGNSQESVTEQDSKDSTYSLSSTLTLSKADYEKHKVYACEVTHQGLSSPVTKSFNRGEC | 1.06 | 0.95 | 0.84 | 0.76 | 1.51 |
| anti-IgE E27 IgG1 His268Ala (antibody, also called H281A (268 in EU numbering); G16 H268A) heavy: not shown light: DIQLTQSPSSLSASVGDRVTITCRASKPVDGEGDSYLNWYQQKPGKAPKLLIYAASYLESGVPSRFSGSGSGTDFTLTISSLQPEDFATYYCQQSHEDPYTFGQGTKVEIKRTVAAPSVFIFPPSDEQLKSGTASVVCLLNNFYPREAKVQWKVDNALQSGNSQESVTEQDSKDSTYSLSSTLTLSKADYEKHKVYACEVTHQGLSSPVTKSFNRGEC | 1.09 | 1.21 | 1.44 | 0.54 | 1.02 |
| anti-IgE E27 IgG1 His285Ala (antibody) heavy: not shown light: DIQLTQSPSSLSASVGDRVTITCRASKPVDGEGDSYLNWYQQKPGKAPKLLIYAASYLESGVPSRFSGSGSGTDFTLTISSLQPEDFATYYCQQSHEDPYTFGQGTKVEIKRTVAAPSVFIFPPSDEQLKSGTASVVCLLNNFYPREAKVQWKVDNALQSGNSQESVTEQDSKDSTYSLSSTLTLSKADYEKHKVYACEVTHQGLSSPVTKSFNRGEC | 0.96 | 1.26 | 1.23 | 0.87 | 0.85 |
| anti-IgE E27 IgG1 Glu430Ala (antibody) heavy: not shown light: DIQLTQSPSSLSASVGDRVTITCRASKPVDGEGDSYLNWYQQKPGKAPKLLIYAASYLESGVPSRFSGSGSGTDFTLTISSLQPEDFATYYCQQSHEDPYTFGQGTKVEIKRTVAAPSVFIFPPSDEQLKSGTASVVCLLNNFYPREAKVQWKVDNALQSGNSQESVTEQDSKDSTYSLSSTLTLSKADYEKHKVYACEVTHQGLSSPVTKSFNRGEC | 1.05 | 1.24 | 1.28 | 1.2 | 0.93 |
| anti-IgE E27 IgG1 Lys288Ala (antibody) heavy: not shown light: DIQLTQSPSSLSASVGDRVTITCRASKPVDGEGDSYLNWYQQKPGKAPKLLIYAASYLESGVPSRFSGSGSGTDFTLTISSLQPEDFATYYCQQSHEDPYTFGQGTKVEIKRTVAAPSVFIFPPSDEQLKSGTASVVCLLNNFYPREAKVQWKVDNALQSGNSQESVTEQDSKDSTYSLSSTLTLSKADYEKHKVYACEVTHQGLSSPVTKSFNRGEC | 0.88 | 1.15 | 1.14 | 1.06 | 0.38 |
| anti-IgE E27 IgG1 Ile253Ala (antibody) heavy: not shown light: DIQLTQSPSSLSASVGDRVTITCRASKPVDGEGDSYLNWYQQKPGKAPKLLIYAASYLESGVPSRFSGSGSGTDFTLTISSLQPEDFATYYCQQSHEDPYTFGQGTKVEIKRTVAAPSVFIFPPSDEQLKSGTASVVCLLNNFYPREAKVQWKVDNALQSGNSQESVTEQDSKDSTYSLSSTLTLSKADYEKHKVYACEVTHQGLSSPVTKSFNRGEC | 0.96 | 1.14 | 1.18 | 1.08 | 0.1 |
| anti-IgE E27 IgG1 Leu309Ala (antibody) heavy: not shown light: DIQLTQSPSSLSASVGDRVTITCRASKPVDGEGDSYLNWYQQKPGKAPKLLIYAASYLESGVPSRFSGSGSGTDFTLTISSLQPEDFATYYCQQSHEDPYTFGQGTKVEIKRTVAAPSVFIFPPSDEQLKSGTASVVCLLNNFYPREAKVQWKVDNALQSGNSQESVTEQDSKDSTYSLSSTLTLSKADYEKHKVYACEVTHQGLSSPVTKSFNRGEC | 0.93 | 1.13 | 1.26 | 1.07 | 0.63 |
| anti-IgE E27 IgG1 Lys290Ala (antibody, also called K290(307)A) heavy: not shown light: DIQLTQSPSSLSASVGDRVTITCRASKPVDGEGDSYLNWYQQKPGKAPKLLIYAASYLESGVPSRFSGSGSGTDFTLTISSLQPEDFATYYCQQSHEDPYTFGQGTKVEIKRTVAAPSVFIFPPSDEQLKSGTASVVCLLNNFYPREAKVQWKVDNALQSGNSQESVTEQDSKDSTYSLSSTLTLSKADYEKHKVYACEVTHQGLSSPVTKSFNRGEC | 1.01 | 1.3 | 1.38 | 1.31 | 0.79 |
| anti-IgE E27 IgG1 His433Ala (antibody) heavy: not shown light: DIQLTQSPSSLSASVGDRVTITCRASKPVDGEGDSYLNWYQQKPGKAPKLLIYAASYLESGVPSRFSGSGSGTDFTLTISSLQPEDFATYYCQQSHEDPYTFGQGTKVEIKRTVAAPSVFIFPPSDEQLKSGTASVVCLLNNFYPREAKVQWKVDNALQSGNSQESVTEQDSKDSTYSLSSTLTLSKADYEKHKVYACEVTHQGLSSPVTKSFNRGEC | 0.98 | 0.92 | 0.79 | 1.02 | 0.41 |

Now from value to binder:

| ratio to native IgG1 [1] [ratio] | ratio to native IgG1 [2] [ratio] | ratio to native IgG1 [3] [ratio] | ratio to native IgG1 [4] [ratio] | ratio to native IgG1 [5] [ratio] | Binder |
| --- | --- | --- | --- | --- | --- |
| 0.92 | 1.13 | 1.18 | 1.1 | 1.44 | anti-IgE E27 IgG1 Lys317Ala (antibody, also called Lys317A1a) heavy: not shown light: DIQLTQSPSSLSASVGDRVTITCRASKPVDGEGDSYLNWYQQKPGKAPKLLIYAASYLESGVPSRFSGSGSGTDFTLTISSLQPEDFATYYCQQSHEDPYTFGQGTKVEIKRTVAAPSVFIFPPSDEQLKSGTASVVCLLNNFYPREAKVQWKVDNALQSGNSQESVTEQDSKDSTYSLSSTLTLSKADYEKHKVYACEVTHQGLSSPVTKSFNRGEC |
| 1.03 | 1.23 | 1.41 | 1.23 | 1.03 | anti-IgE E27 IgG1 Lys326Ala (antibody) heavy: not shown light: DIQLTQSPSSLSASVGDRVTITCRASKPVDGEGDSYLNWYQQKPGKAPKLLIYAASYLESGVPSRFSGSGSGTDFTLTISSLQPEDFATYYCQQSHEDPYTFGQGTKVEIKRTVAAPSVFIFPPSDEQLKSGTASVVCLLNNFYPREAKVQWKVDNALQSGNSQESVTEQDSKDSTYSLSSTLTLSKADYEKHKVYACEVTHQGLSSPVTKSFNRGEC |
| 1.02 | 1.12 | 1.12 | 1.23 | 1.3 | anti-IgE E27 IgG1 Lys360Ala (antibody) heavy: not shown light: DIQLTQSPSSLSASVGDRVTITCRASKPVDGEGDSYLNWYQQKPGKAPKLLIYAASYLESGVPSRFSGSGSGTDFTLTISSLQPEDFATYYCQQSHEDPYTFGQGTKVEIKRTVAAPSVFIFPPSDEQLKSGTASVVCLLNNFYPREAKVQWKVDNALQSGNSQESVTEQDSKDSTYSLSSTLTLSKADYEKHKVYACEVTHQGLSSPVTKSFNRGEC |
| 0.9 | 0.78 | 0.63 | 0.15 | 1.14 | anti-IgE E27 IgG1 Lys338Ala (antibody) heavy: not shown light: DIQLTQSPSSLSASVGDRVTITCRASKPVDGEGDSYLNWYQQKPGKAPKLLIYAASYLESGVPSRFSGSGSGTDFTLTISSLQPEDFATYYCQQSHEDPYTFGQGTKVEIKRTVAAPSVFIFPPSDEQLKSGTASVVCLLNNFYPREAKVQWKVDNALQSGNSQESVTEQDSKDSTYSLSSTLTLSKADYEKHKVYACEVTHQGLSSPVTKSFNRGEC |
| 1.06 | 1.01 | 0.9 | 1.39 | 1.05 | anti-IgE E27 IgG1 Lys334Ala (antibody, also called G55 K334A) heavy: not shown light: DIQLTQSPSSLSASVGDRVTITCRASKPVDGEGDSYLNWYQQKPGKAPKLLIYAASYLESGVPSRFSGSGSGTDFTLTISSLQPEDFATYYCQQSHEDPYTFGQGTKVEIKRTVAAPSVFIFPPSDEQLKSGTASVVCLLNNFYPREAKVQWKVDNALQSGNSQESVTEQDSKDSTYSLSSTLTLSKADYEKHKVYACEVTHQGLSSPVTKSFNRGEC |
| 0.6 | 0.38 | 0.36 | 0.07 | 1.49 | anti-IgE E27 IgG1 Pro238Ala (antibody) heavy: not shown light: DIQLTQSPSSLSASVGDRVTITCRASKPVDGEGDSYLNWYQQKPGKAPKLLIYAASYLESGVPSRFSGSGSGTDFTLTISSLQPEDFATYYCQQSHEDPYTFGQGTKVEIKRTVAAPSVFIFPPSDEQLKSGTASVVCLLNNFYPREAKVQWKVDNALQSGNSQESVTEQDSKDSTYSLSSTLTLSKADYEKHKVYACEVTHQGLSSPVTKSFNRGEC |
